Target: T1, human vascular endothelial growth factor receptor-2 Fc chimera (KDR-Fc) (human, UniProt P35968 20-764)
T1 construct: range 1-764; also called human VEGFR-2; not shown: human IgG1 Fc
Test: radioactive equilibrium binding, 1 nM KDR-Fc, % of input
Method: To prepare ³⁵S-labeled binding proteins for analysis, mRNA was prepared as described above for RNA-protein fusion production but the linker ligation step was omitted. The mRNA was expressed using rabbit reticulocyte lysate translation kit (Ambion) in the presence of ³⁵S-labeled Met at 30° C. for 1 hour. Expressed protein was purified on M2-agarose Flag beads (Sigma) as described above. This procedure produced the encoded protein without the nucleic acid tail. In a direct binding assay, VEGF-R2-Fc fusions in concentrations ranging from 0 to 200 nM were added to a constant concentration of the purified protein (0.2 or 0.5 nM) and incubated at 30° C. for 1 hour in buffer B. The receptor-binder complexes were captured using Protein A magnetic beads for another 10 minutes at room temperature using a Kingfisher™ The beads were washed with six reaction volumes of buffer B. The protein was eluted from the beads with 100 μL of 0.1 M KOH. 50 μL of the reaction mixture and elution were dried onto a LumaPlate-96 (Packard) and the amount of ³⁵S on the plate was measured using a TopCount NXT instrument (Packard). The amount of fibronectin-based scaffold protein bound to the target was estimated as a percent of radioactivity eluted from Protein A magnetic beads compare to radioactivity in the reaction mixture. Nonspecific binding of fibronectin-based scaffold proteins to the beads was determined by measuring binding in the absence of KDR-Fc and represented less than 1-2% of the input. Specific binding was obtained through subtraction of nonspecific binding from total binding. Data was analyzed using the GraphPad Prizm software (GraphPad Software, Inc, San Diego, Calif.), fitted using a one site, non-linear binding equation.

T1 sequence (P35968 20-764 limits assumed, change not shown, form in doubt): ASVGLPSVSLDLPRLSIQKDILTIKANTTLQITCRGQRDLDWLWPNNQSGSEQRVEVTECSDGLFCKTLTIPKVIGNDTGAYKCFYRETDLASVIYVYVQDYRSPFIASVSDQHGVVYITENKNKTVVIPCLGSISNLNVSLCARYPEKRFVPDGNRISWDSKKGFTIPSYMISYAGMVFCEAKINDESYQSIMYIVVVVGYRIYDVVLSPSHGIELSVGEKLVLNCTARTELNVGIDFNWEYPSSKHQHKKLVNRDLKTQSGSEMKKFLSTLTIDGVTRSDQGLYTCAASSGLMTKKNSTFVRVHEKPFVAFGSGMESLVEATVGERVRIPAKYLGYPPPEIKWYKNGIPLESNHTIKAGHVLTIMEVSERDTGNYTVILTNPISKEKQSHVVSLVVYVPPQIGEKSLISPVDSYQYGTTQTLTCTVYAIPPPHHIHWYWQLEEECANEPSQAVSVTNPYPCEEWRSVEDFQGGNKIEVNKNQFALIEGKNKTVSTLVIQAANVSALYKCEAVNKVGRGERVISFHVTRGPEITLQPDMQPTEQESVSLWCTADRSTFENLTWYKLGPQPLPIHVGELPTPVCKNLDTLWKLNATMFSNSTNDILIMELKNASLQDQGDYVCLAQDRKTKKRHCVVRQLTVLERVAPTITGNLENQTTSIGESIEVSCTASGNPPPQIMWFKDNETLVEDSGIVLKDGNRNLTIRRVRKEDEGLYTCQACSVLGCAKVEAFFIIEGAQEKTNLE

Binding to 1 nM KDR, % | Binder
14% | 3′H10 PR4 (designed binder) EVVAATPTSLLISWRHPHFPTRYYRITYGETGGNSPVQEFTVPLQPPTATISGLKPGVDYTITVYAVTWAWNDHELMTPISINYRT
27% | 4′C5 PR4 (designed binder) EVVAATPTSLLISWRHPHFPTRYYRITYGETGGNSPVQEFTVPLQPPTATISGLKPGVDYTITVYAVTLGLNDHELITPISINYRT
42% | 4′B3 PR4 (designed binder) EVVAATPTSLLISWRHPHFPTRYYRITYGETGGNSPVQEFTVPLQPPTATISGLKPGVDYTITVYAVTMAQNNRELLTPISINYRT
15% | 4F4 PR3 (designed binder) EVVAATPTSLLISWRHPHFPTRYYRITYGETGGNSPVQEFTVPLQPPTATISGLKPGVDYTITVYAVTLAQNDRELITPISINYRT
14% | 4H5 PR3 (designed binder) EVVAATPTSLLISWRHPHFPTRYYRITYGETGGNSPVQEFTVPLQPPTATISGLKPGVDYTITVYAVTVAQNGHELITPISINYRT
16% | 4′A5 PR4 (designed binder) EVVAATPTSLLISWRHPHFPTRYYRITYGETGGNSPVQEFTVPLQPPTATISGLKPGVDYTITVYAVTLAQNDHELLTPISINYRT
16% | 4C9 PR3 (designed binder) EVVAATPTSLLISWRHPHFPTRYYRITYGETGGNSPVQEFTVPLQPPTATISGLKPGVDYTITVYAVTLAQNDHELLTPISINYRT
15% | 4B11 PR3 (designed binder) EVVAATPTSLLISWRHPHFPTRYYRITYGETGGNSPVQEFTVPLQPPTATISGLKPGVDYTITVYAVTVGQNNHELITPISINYRT
24% | 3′H9 PR4 (designed binder) EVVAATPTSLLISWRHPHFPTRYYRITYGETGGNSPVQEFTVPLQPPTATISGLKPGVDYTITVYAVTHGPYDQVLLTPISINYRT
20% | 4′B8 PR4 (designed binder) EVVAATPTSLLISWRHPHFPTRYYRITYGETGGNSPVQEFTVPLQPPTATISGLKPGVDYTITVYAVTVAQNDHKLFIPISINYRT
39% | 3′H11 PR4 (designed binder) EVVAATPTSLLISWRHPHFPTRYYRITYGETGGNSPVQEFTVPLQPPTATISGLKPGVDYTITVYAVTLAHNGNELLTPISINYRT
20% | 3′H8 PR4 (designed binder) EVVAATPTSLLISWRHPHFPTRYYRITYGETGGNSPVQEFTVPLQPPTATISGLKPGVDYTITVYAVTVGHNDRELITPISINYRT
25% | 4′B11 PR4 (designed binder) EVVAATPTSLLISWRHPHFPTRYYRITYGETGGNSPVQEFTVPLQPPTATISGLKPGVDYTITVYAVTMAHNDHELLTPISINYRT
29% | 4′C9 PR4 (designed binder) EVVAATPTSLLISWRHPHFPTRYYRITYGETGGNSPVQEFTVPLQPPTATISGLKPGVDYTITVYAVTLGPNDHELMTPISINYRT
16% | 4′B7 PR4 (designed binder) EVVAATPTSLLISWRHPHFPTRYYRITYGETGGNSPVQEFTVPLQPPTATISGLKPGVDYTITVYAVTVAQNNHELLTPISINYRT

The next lines start with the binder.

Binder | Binding to 1 nM KDR, %
3′D8 PR4 (designed binder) EVVAATPTSLLISWRHPHFPTRYYRITYGETGGNSPVQEFTVPLQPPTATISGLKPGVDYTITVYAVTAGPNDHQLFTPISINYRT | 27%
3′F2 PR4 (designed binder) EVVAATPTSLLISWRHPHFPTRYYRITYGETGGNSPVQEFTVPLQPPTATISGLKPGVDYTITVYAVTLGKNDHELLTPISINYRT | 29%
3′E9 PR4 (designed binder) EVVAATPTSLLISWRHPHFPTRYYRITYGETGGNSPVQEFTVPLQPPTATISGLKPGVDYTITVYAVTVEQDGHVLYIPISINYRT | 44%
3′G2 PR4 (designed binder) EVVAATPTSLLISWRHPHFPTRYYRITYGETGGNSPVQEFTVPLQPPTATISGLKPGVDYTITVYAVTLAQNGHELITPISINYRT | 15%
3′G7 PR4 (designed binder) EVVAATPTSLLISWRHPHFPTRYYRITYGETGGNSPVQEFTVPLQPPTATISGLKPGVDYTITVYAVTEGQNDQLLFIPISINYRT | 19%
3′E11 PR4 (designed binder) EVVAATPTSLLISWRHPHFPTRYYRITYGETGGNSPVQEFTVPLQPPTATISGLKPGVDYTITVYAVTVGPHDRELLTPISINYRT | 17%
3′H1 PR4 (designed binder) EVVAATPTSLLISWRHPHFPTRYYRITYGETGGNSPVQEFTVPLQPPTATISGLKPGVDYTITVYAVTFAQNDHQLFTPISINYRT | 22%
3′G1 PR4 (designed binder) EVVAATPTSLLISWRHPHFPTRYYRITYGETGGNSPVQEFTVPLQPPTATISGLKPGVDYTITVYAVTLALNGHELFTPISINYRT | 19%
3′H3 PR4 (designed binder) EVVAATPTSLLISWRHPHFPTRYYRITYGETGGNSPVQEFTVPLQPPTATISGLKPGVDYTITVYAVTLGLNDRELMTPISINYRT | 36%
3′G10 PR4 (designed binder) EVVAATPTSLLISWRHPHFPTRYYRITYGETGGNSPVQEFTVPLQPPTATISGLKPGVDYTITVYAVTLTHNDHELLTPISINYRT | 30%
3′F9 PR4 (designed binder) EVVAATPTSLLISWRHPHFPTRYYRITYGETGGNSPVQEFTVPLQPPTATISGLKPGVDYTITVYAVTLGPNDRELMTPISINYRT | 18%
3′E1 PR4 (designed binder) EVVAATPTSLLISWRHPHFPTRYYRITYGETGGNSPVQEFTVPLQPPTATISGLKPGVDYTITVYAVTVAPNGHELFTPISINYRT | 32%
3′G3 PR4 (designed binder) EVVAATPTSLLISWRHPHFPTRYYRITYGETGGNSPVQEFTVPLQPPTATISGLKPGVDYTITVYAVTFDQSDHELLTPISINYRT | 31%
3′D9 PR4 (designed binder) EVVAATPTSLLISWRHPHFPTRYYRITYGETGGNSPVQEFTVPLQPPTATISGLKPGVDYTITVYAVTGYYNDRELLTPISINYRT | 30%
3′F1 PR4 (designed binder) EVVAATPTSLLISWRHPHFPTRYYRITYGETGGNSPVQEFTVPLQPPTATISGLKPGVDYTITVYAVTVAQDGHFLYTPISINYRT | 31%
3′E5 PR4 (designed binder) EVVAATPTSLLISWRHPHFPTRYYRITYGETGGNSPVQEFTVPLQPPTATISGLKPGVDYTITVYAVTVAWDGRELFTPISINYRT | 23%
3′F3 PR4 (designed binder) EVVAATPTSLLISWRHPHFPTRYYRITYGETGGNSPVQEFTVPLQPPTATISGLKPGVDYTITVYAVTLGHNDRELLTPISINYRT | 37%
3′F12 PR4 (designed binder) EVVAATPTSLLISWRHPHFPTRYYRITYGETGGNSPVQEFTVPLQPPTATISGLKPGVDYTITVYAVTLSQTDHELLTPISINYRT | 17%
3′E3 PR4 (designed binder) EVVAATPTSLLISWRHPHFPTRYYRITYGETGGNSPVQEFTVPLQPPTATISGLKPGVDYTITVYAVTMAQYGRELLTPISINYRT | 41%
3′F6 PR4 (designed binder) EVVAATPTSLLISWRHPHFPTRYYRITYGETGGNSPVQEFTVPLQPPTATISGLKPGVDYTITVYAVTIEQSGLQLMTPISINYRT | 24%
3′E10 PR4 (designed binder) EVVAATPTSLLISWRHPHFPTRYYRITYGETGGNSPVQEFTVPLQPPTATISGLKPGVDYTITVYAVTAGHKDQELLTPISINYRT | 21%

— patent US20120283184A1 (published 2012)
